T1: human DLL3 on cells (HEK293T cells expressing human DLL3; SHP-77 cells) (human, UniProt Q9NYJ7 27-618)
T1 construct: whole, on cells; also called HEK-DLL3
T1 sequence (looked up): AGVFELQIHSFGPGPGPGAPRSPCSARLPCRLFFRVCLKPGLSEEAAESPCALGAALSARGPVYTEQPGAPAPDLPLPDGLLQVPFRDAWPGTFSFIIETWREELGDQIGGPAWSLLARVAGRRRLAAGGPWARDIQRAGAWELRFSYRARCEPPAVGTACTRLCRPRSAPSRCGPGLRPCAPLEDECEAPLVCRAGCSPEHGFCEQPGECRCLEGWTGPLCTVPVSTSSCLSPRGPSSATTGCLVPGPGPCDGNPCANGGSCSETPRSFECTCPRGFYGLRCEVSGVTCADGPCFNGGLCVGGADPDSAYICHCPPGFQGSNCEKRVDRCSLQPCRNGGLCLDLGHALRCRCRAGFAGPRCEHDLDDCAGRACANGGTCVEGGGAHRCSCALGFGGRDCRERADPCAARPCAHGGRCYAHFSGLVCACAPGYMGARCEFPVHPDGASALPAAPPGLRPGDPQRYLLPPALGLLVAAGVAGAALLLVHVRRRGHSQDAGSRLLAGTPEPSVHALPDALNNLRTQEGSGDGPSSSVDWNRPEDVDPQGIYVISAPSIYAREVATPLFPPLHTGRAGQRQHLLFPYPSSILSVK

T2: human DLL3 (recombinant antigen) (human, UniProt Q9NYJ7 27-492, limits assumed)
T2 construct: also called hDLL3
T2 sequence (looked up): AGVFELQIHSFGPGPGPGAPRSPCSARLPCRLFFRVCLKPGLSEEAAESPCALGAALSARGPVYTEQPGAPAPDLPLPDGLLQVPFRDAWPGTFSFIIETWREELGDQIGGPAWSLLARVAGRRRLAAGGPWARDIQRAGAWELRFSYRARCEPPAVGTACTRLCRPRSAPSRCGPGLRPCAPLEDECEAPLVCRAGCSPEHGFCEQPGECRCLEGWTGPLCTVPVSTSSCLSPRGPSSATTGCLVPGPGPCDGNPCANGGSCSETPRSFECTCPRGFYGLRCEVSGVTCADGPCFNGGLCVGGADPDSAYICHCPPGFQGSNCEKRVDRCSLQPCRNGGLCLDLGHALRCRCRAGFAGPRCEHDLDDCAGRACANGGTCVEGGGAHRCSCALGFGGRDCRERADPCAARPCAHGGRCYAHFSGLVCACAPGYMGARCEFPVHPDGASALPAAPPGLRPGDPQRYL

T3: mouse DLL3 (recombinant antigen) (mouse, UniProt O88516 25-477, limits assumed)
T3 construct: also called mDLL3
T3 sequence (looked up): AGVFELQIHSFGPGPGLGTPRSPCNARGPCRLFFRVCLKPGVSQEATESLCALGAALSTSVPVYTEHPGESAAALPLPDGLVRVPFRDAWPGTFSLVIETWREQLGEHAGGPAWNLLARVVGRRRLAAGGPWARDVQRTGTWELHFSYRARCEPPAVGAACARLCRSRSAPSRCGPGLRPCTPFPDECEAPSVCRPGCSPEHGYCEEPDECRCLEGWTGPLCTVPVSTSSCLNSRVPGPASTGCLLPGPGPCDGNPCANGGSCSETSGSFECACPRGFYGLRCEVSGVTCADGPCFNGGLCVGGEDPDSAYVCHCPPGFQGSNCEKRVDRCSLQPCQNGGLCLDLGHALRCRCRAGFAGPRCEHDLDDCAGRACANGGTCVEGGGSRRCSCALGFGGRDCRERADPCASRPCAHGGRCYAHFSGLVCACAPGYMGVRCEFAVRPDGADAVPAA

B1: Clone 107 VHH-Fc, H435Q-Fc format (Fc fusion)
chain: QVQLVESGGGLVQAGDSLRLSCVASDRTFSSYAVGWFRQAPGKEREFVAAISWNGGRTLYTDSVTGRFTISRDNAKSTVYLQMNGLKPEDTAVYYCAARPAAPTRRLEYDYWGQGTQVTVSS
notes: not shown: hinge and human IgG1 Fc with H435Q (EU)
B2: Anti-FOLR1x2; Anti-DLL3x2; GGGGSx3 (bispecific tetravalent VHH-VHH-Fc) (bispecific antibody, not shown: a dimerising Fc or GST)
chain: QVQLVESGGGLVQPGGSLRLSCAASGFTVSNSVMAWYRQTPGNEREFVAIINSIGITNYADSVKGRFTISRDNSKNTLYLQMNSLRAEDTAVYVCNRNFDRIYWGQGTLVTVSSGGGGSGGGGSGGGGSEVQLVESGGGEVQPGGSLRLSCAASGSIFSINAMGWYRQAPGKQRELVAGFTGDTNTIYAESVKGRFTISRDNAKNTVYLQMSSLRAEDTAVYYCAADVQLFSRDYEFYWGQGTLVTVKP
notes: homodimer; 104,948 Da; also called (GGGGS)3
B3: Anti-FOLR1x2; Anti-DLL3x2; GGSx4 (bispecific tetravalent VHH-VHH-Fc) (bispecific antibody, not shown: a dimerising Fc or GST)
chain: QVQLVESGGGLVQPGGSLRLSCAASGFTVSNSVMAWYRQTPGNEREFVAIINSIGITNYADSVKGRFTISRDNSKNTLYLQMNSLRAEDTAVYVCNRNFDRIYWGQGTLVTVSSGGSGGSGGSGGSEVQLVESGGGEVQPGGSLRLSCAASGSIFSINAMGWYRQAPGKQRELVAGFTGDTNTIYAESVKGRFTISRDNAKNTVYLQMSSLRAEDTAVYYCAADVQLFSRDYEFYWGQGTLVTVKP
notes: homodimer; 104,665 Da; also called (GGS)4
B4: FOLR1 VHH (VHH-Fc control) (Fc fusion, not shown: a dimerising Fc or GST)
chain: QVQLVESGGGLVQPGGSLRLSCAASGFTVSNSVMAWYRQTPGNEREFVAIINSIGITNYADSVKGRFTISRDNSKNTLYLQMNSLRAEDTAVYVCNRNFDRIYWGQGTLVTVSS
B5: Anti-FOLR1x2; Anti-DLL3x2; GGSx3 (bispecific tetravalent VHH-VHH-Fc) (bispecific antibody, not shown: a dimerising Fc or GST)
chain: QVQLVESGGGLVQPGGSLRLSCAASGFTVSNSVMAWYRQTPGNEREFVAIINSIGITNYADSVKGRFTISRDNSKNTLYLQMNSLRAEDTAVYVCNRNFDRIYWGQGTLVTVSSGGSGGSGGSEVQLVESGGGEVQPGGSLRLSCAASGSIFSINAMGWYRQAPGKQRELVAGFTGDTNTIYAESVKGRFTISRDNAKNTVYLQMSSLRAEDTAVYYCAADVQLFSRDYEFYWGQGTLVTVKP
notes: homodimer; 104,263 Da; also called (GGS)3
B6: Clone 186 VHH-Fc, H435Q-Fc format (Fc fusion)
chain: QVQVVESGGGLVQPGGSLTLSCAASGFDFSTYTVNWYRQAPGKEREKVARISSTGTTTNYANSAKGRFTLSRDNAKNRVYLQMNNLKPEDTAVYFCNFERFDSNYWGQGTQVTVSS
notes: also called 186 (H435Q-Fc); not shown: hinge and human IgG1 Fc with H435Q (EU)
B7: Clone 100 VHH-Fc, H435Q-Fc format (Fc fusion)
chain: QVQLVESGGGSVQPGGSLRLSCAASGIVFNSDVMGWYRQVPGKPRELVATITGGGSTNYATSVKGRFTISRDNAKNTVYLQMNSLRPEDTAVYYCNGRRGDSMLAFWAQGTQVTVSS
notes: also called 100 (H435Q-Fc); not shown: hinge and human IgG1 Fc with H435Q (EU)
B8: Clone 126 VHH-Fc, H435Q-Fc format (Fc fusion)
chain: QVQLVESGGGMVQPGGSLRLSCAASGITFSMYSMSWYRQPPGKQRELVAATTTFGSTNYADSVKGRFTISRDNAKNTVYLQMNSLKPEDTAVYLCNARFTSEEYWGQGTQVTVSS
notes: as for B1
B9: Clone 24 VHH-Fc, H435Q-Fc format (Fc fusion)
chain: QVQYVESGGGLVQPGGSLRLSCAASGFTFSSYRINWYRQPPGKGRELVGSITDTGSTNYADSVKGRFTISRDNAKNTVYLQMSSLKPEDTAVYYCRAPTIAAYWGQGTQVTVSS
notes: also called 24 (H435Q-Fc); not shown: hinge and human IgG1 Fc with H435Q (EU)

Experiments:
[1] = biological target: T1, human DLL3 on cells (HEK293T cells …); assay: flow cytometry on SHP-77 cells (endogenous DLL3), H435Q-Fc format
[2] = biological target: T2, human DLL3 (recombinant antigen); assay: affinity to hDLL3, H435Q-Fc format; method not given
[3] = biological target: T1, human DLL3 on cells (HEK293T cells …); assay: cell-based or functional assay
[4] = biological target: T4, human FOLR1 (recombinant antigen) (human, UniProt P15328 25-234, limits assumed); assay: ELISA on hFOLR1
T4 construct: also called hFOLR1

[5] = biological target: T5, FOLR1 on OVCAR3 cells (UniProt P15328 25-234); assay: cell binding to FOLR1-positive OVCAR3 cells
T5 construct: whole, on cells; OVCAR3 is a human ovarian cancer line; also called FOLR1-positive OVCAR3 cells

[6] = biological target: T4, human FOLR1 (recombinant antigen); assay: BLI (Octet), construct captured on AHC biosensor, hFOLR1 as analyte
Protocol: (§1) Antibody affinity was assessed using Octet Red96e (ForteBio). […] Each cycle was performed with orbital shake speed of 1,000 rpm. […] A set of AHC biosensors was dipped in kinetics buffer for baseline step of 60s. Anti-Target VHH-Fc (5 μg/mL, in kinetics buffer) was loaded onto the biosensors for 240 s followed by a second baseline step of 30 s. The IgG captured sensors were dipped into buffer for single reference subtraction to compensate natural dissociation of capture IgG. Each biosensor was then dipped into corresponding concentration of target protein (human, murine or cynomolgus monomeric protein) for 600 s, followed by 1800 s of dissociation time in kinetics buffer, or conditions as optimized. A new set of AHC biosensors was used for every VHH-Fc. The data was analysed by global fit 1:1 model for the association and dissociation step, (Octet software version v11.0).
(§2) Tetramers and VHH-Fcs were assessed for affinity to target antigens. AHC Octet biosensors were used to capture tetramer/VHH-Fc and then dipped into antigen.

[7] = biological target: T6, mouse FOLR1 (recombinant antigen) (mouse, UniProt P35846 25-232, limits assumed); assay: ELISA on mFOLR1
T6 construct: also called mFOLR1

[8] = biological target: T3, mouse DLL3 (recombinant antigen); assay: BLI (Octet), construct captured on AHC biosensor, mDLL3 as analyte; row label taken as a misprint for the bispecific
Protocol: as §1, §2

[9] = biological target: T6, mouse FOLR1 (recombinant antigen); assay: BLI (Octet), construct captured on AHC biosensor, mFOLR1 as analyte
Protocol: as §1, §2

[10] = biological target: T2, human DLL3 (recombinant antigen); assay: BLI (Octet), construct captured on AHC biosensor, hDLL3 as analyte
Protocol: as §1, §2

[11] = biological target: T3, mouse DLL3 (recombinant antigen); assay: BLI (Octet), VHH-Fc captured on AHC biosensor, mDLL3 as analyte
Protocol: as §1
(§3) AHC Octet biosensors were used to capture tetramer/VHH-Fc and then dipped into antigen.

[12] = biological target: T2, human DLL3 (recombinant antigen); assay: BLI (Octet), VHH-Fc captured on AHC biosensor, hDLL3 as analyte
Protocol: as §1, §3

[13] = biological target: T6, mouse FOLR1 (recombinant antigen); assay: BLI (Octet), VHH-Fc captured on AHC biosensor, mFOLR1 as analyte
Protocol: as §1, §3

[14] = biological target: T4, human FOLR1 (recombinant antigen); assay: BLI (Octet), VHH-Fc captured on AHC biosensor, hFOLR1 as analyte
Protocol: as §1, §3

T6 sequence (P35846 25-232 limits assumed): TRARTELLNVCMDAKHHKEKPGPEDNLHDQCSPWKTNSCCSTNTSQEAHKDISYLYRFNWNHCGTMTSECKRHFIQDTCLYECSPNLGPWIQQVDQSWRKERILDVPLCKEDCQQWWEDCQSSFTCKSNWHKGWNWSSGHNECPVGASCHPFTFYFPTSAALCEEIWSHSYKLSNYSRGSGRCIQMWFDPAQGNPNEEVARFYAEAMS
T4 sequence (P15328 25-234 limits assumed): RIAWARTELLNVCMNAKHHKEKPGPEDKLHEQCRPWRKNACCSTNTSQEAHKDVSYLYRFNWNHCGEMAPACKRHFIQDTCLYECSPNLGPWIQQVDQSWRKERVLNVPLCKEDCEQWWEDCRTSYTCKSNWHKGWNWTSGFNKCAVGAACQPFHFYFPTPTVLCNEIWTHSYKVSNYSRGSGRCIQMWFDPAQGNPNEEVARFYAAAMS
T5 sequence (P15328 25-234): as the sequence (P15328 25-234 limits assumed) above

| Binder | EC50 [1] [nM] | Kd [2] [nM] | H435Q-Fc SHP-77 Internalization FOI [3] [fold over isotype] | EC50 [4] [nM] | EC50 [5] [nM] | Kd [6] [nM] | koff [6] [s⁻¹] | kon [6] [M⁻¹ s⁻¹] | EC50 [7] [nM] | Kd [8] [nM] | koff [8] [s⁻¹] | kon [8] [M⁻¹ s⁻¹] | Kd [9] [nM] | koff [9] [s⁻¹] | kon [9] [M⁻¹ s⁻¹] | Kd [10] [nM] | koff [10] [s⁻¹] | kon [10] [M⁻¹ s⁻¹] | also measured |
| --- | --- | --- | --- | --- | --- | --- | --- | --- | --- | --- | --- | --- | --- | --- | --- | --- | --- | --- | --- |
| B1 | 0.74 | 0.72 | 1.27 |  |  |  |  |  |  |  |  |  |  |  |  |  |  |  |  |
| B2 |  |  |  | 0.13 | 0.7 | 2.75 | 0.00111 | 405000 | 0.08 | 3.09 | 0.000684 | 222000 | 8.32 | 0.00407 | 490000 | 1.53 | 0.000306 | 200000 |  |
| B3 |  |  |  | 0.11 | 0.59 | 2.32 | 0.000932 | 401000 | 0.07 | 2.88 | 0.000642 | 223000 | 7.99 | 0.00386 | 483000 | 1.24 | 0.000267 | 215000 |  |
| B4 |  |  |  | 0.12 |  |  |  |  | 0.08 |  |  |  |  |  |  |  |  |  | binding result [11]: no binding; binding result [12]: no binding; Kd [13]: 4.67 nM; koff [13]: 0.00312 s⁻¹; kon [13]: 668000 M⁻¹ s⁻¹; Kd [14]: 2.19 nM; koff [14]: 0.000828 s⁻¹; kon [14]: 379000 M⁻¹ s⁻¹ |
| B5 |  |  |  | 0.14 | 0.58 | 2.68 | 0.00102 | 381000 | 0.09 | 2.92 | 0.000659 | 226000 | 7 | 0.00399 | 553000 | 1.43 | 0.000312 | 219000 |  |
| B6 | 0.47 | 0.55 | 1.18 |  |  |  |  |  |  |  |  |  |  |  |  |  |  |  |  |
| B7 | 1.16 | 0.2 | 1.19 |  |  |  |  |  |  |  |  |  |  |  |  |  |  |  |  |
| B8 | 0.44 | < 1 | 1.19 |  |  |  |  |  |  |  |  |  |  |  |  |  |  |  |  |
| B9 | 1.2 | 1.08 | 1.19 |  |  |  |  |  |  |  |  |  |  |  |  |  |  |  |  |

— patent US20260137822A1 (ABDERA THERAPEUTICS, published 2026)
